# From patent US20100144617
# T1: Native porcine OXM, P01274
# T1 chain: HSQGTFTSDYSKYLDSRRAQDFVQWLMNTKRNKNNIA
# T2: OXM2 (not fully specified)
# T2 chain: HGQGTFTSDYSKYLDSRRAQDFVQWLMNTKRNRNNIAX
# B1: recombinant soluble human DP-IV (protein)
# chain: SRKTYTLTDYLKNTYRLKLYSLRWISDHEYLYKQENNILVFNAEYGNSSVFLENSTFDEFGHSINDYSISPDGQFILLEYNYVKQWRHSYTASYDIYDLNKRQLITEERIPNNTQWVTWSPVGHKLAYVWNNDIYVKIEPNLPSYRITWTGKEDIIYNGITDWVYEEEVFSAYSALWWSPNGTFLAYAQFNDTEVPLIEYSFYSDESLQYPKTVRVPYPKAGAVNPTVKFFVVNTDSLSSVTNATSIQITAPASMLIGDHYLCDVTWATQERISLQWLRRIQNYSVMDICDYDESSGRWNCLVARQHIEMSTTGWVGRFRPSEPHFTLDGNSFYKIISNEEGYRHICYFQIDKKDCTFITKGTWEVIGIEALTSDYLYYISNEYKGMPGGRNLYKIQLSDYTKVTCLSCELNPERCQYYSVSFSKEAKYYQLRCSGPGLPLYTLHSSVNDKGLRVLEDNSALDKMLQNVQMPSKKLDFIILNETKFWYQMILPPHFDKSKKYPLLLDVYAGPCSQKADTVFRLNWATYLASTENIIVASFDGRGSGYQGDKIMHAINRRLGTFEVEDQIEAARQFSKMGFVDNKRIAIWGWSYGGYVTSMVLGSGSGVFKCGIAVAPVSRWEYYDSVYTERYMGLPTPEDNLDHYRNSTVMSRAENFKQVEYLLIHGTADDNVHFQQSAQISKALVDVGVDFQAMWYTDEDHGIASSTAHQHIYTHMSHFIKQCFSLP
# How the values were obtained:
# [1] = target: T1, Native porcine OXM, P01274
# OXM2 = target: T2, OXM2
protein,measurement,setting,value
B1,loss of potency at hGLP-1R (cAMP HTRF) after preincubation with DP-IV,[1],loss of potency due to preincubation of the peptides with DP-IV
same,loss of potency at hGLP-1R (cAMP HTRF) after preincubation with DP-IV,OXM2,loss of potency due to preincubation of the peptides with DP-IV
